Article PMC9239242 (mBio, 2022)

What was measured:
[1] = target: T1, E. coli RNA polymerase holoenzyme (native) (E. coli, UniProt P0A8V2 1-1342; P0A8T7 1-1407; P00579 1-613; P0A7Z4 1-329; P0A800 1-91); assay: cell-based or functional assay
[2] = target: T1, E. coli RNA polymerase holoenzyme …; settings: both partners purified

| Binder | IC50 for inhibition of rrnB P1 transcription, multiround in vitro transcription with E. coli RNAP (4 nM to 2,000 nM factor) [1] | IC50 [2] |
| --- | --- | --- |
| λ Orf73 (Orf73 from bacteriophage lambda) (natural protein) ADIIDSASEIEELQRNTAIKMRRLNHQAISATHCCECGDPIDERRRLVVQGCRTCASCQEDLELISKQRGSK | ~50 nM | – |
| VP882 Orf61 (Orf61 from Vibrio phage VP882) (natural protein) SDIADQAQDVIEQHLTASLANRKHNINPAIPSAKHCDDCESEIPEARRRSLPGVRLCVDCASLQEIKGRHQR | 270 nM | 1700 nM |
| VHML Orf8 (Orf8 from Vibrio phage VHML) (natural protein) MTDCSADPLDRAAALSQAHLEVSLSRIKKFEGVSAHECVECGSEIPKKRRELLQGVTDCVDCAAIKETLSKNYMR | 800 nM | 3000 nM |
